Measurements: patent US20240301031A1 (JIANGSU HENGRUI PHARMACEUTICALS, published 2024)

Columns and labels:
[1] = biological target: BAFF (R&D Systems, 7537-BF) (UniProt Q9Y275 134-285); assay: cell-based or functional assay
[2] = biological target: T1, human BAFF (10056-HNCH, Sino biological) (human, UniProt Q9Y275 134-285); assay: ELISA, BAFF coated, sample titrated
T1 construct: Bought protein
Procedure: The binding activity of the antibodies or fusion proteins for BAFF, APRIL, and IL-12/23 p40 was assayed by the ELISA method (coating an antigen protein). The specific procedures were as follows:
A BAFF (Sino biological, 10056-HNCH), APRIL (R&D Systems, 5860-AP-010/CF), or IL-12/23 p40 (Sino biological, 10052-H08H) protein was diluted to 1 μg/mL with a PBS (BasalMedia, B320) buffer at pH 7.4, and added to a 96-well microplate (Corning, 3590) at 100 μL/well. The plate was incubated at 4° C. overnight. After the liquid was discarded, 300 μL of 5% skim milk (BD, 232100) diluted with PBS was added to each well for blocking, and the plate was incubated at 37° C. for 2 h. After the blocking was completed, the blocking solution was discarded, and the plate was washed 3 times with a PBST buffer (PBS at pH 7.4 containing 0.1% tween-20). 100 μL of test antibody or fusion protein solution diluted in a gradient was added to each well, and the plate was incubated at 37° C. for 1 h. After the incubation was completed, the plate was washed 3 times with PBST. […] The plate was washed 3 times with PBST. […] The plate was read for absorbance values at 450 nm on a microplate reader, the binding curves of the antibodies to an antigen were fitted with software, and the EC₅₀ values were calculated.

[3] = biological target: T1, human BAFF (10056-HNCH, Sino biological); assay: competition ELISA: biotin-labeled BAFF to coated BCMA
Procedure: (§1) A receptor protein was diluted to 2 μg/mL with PBS at pH 7.4 (BasalMedia, B320) and added to a 96-well microplate (Corning, 3590) at 100 μL/well. The plate was incubated at 4° C. overnight. After the liquid was discarded, 200 μL of 1% Casein blocking solution (Thermo, 37528) was added to each well for blocking, and the plate was incubated at 37° C. for 2 h. After the blocking was completed, the blocking solution was discarded, and the plate was washed 3 times with a PBST buffer (PBS at pH 7.4 containing 0.1% tween-20) for later use. A biotin-labeled ligand protein at a fixed concentration was mixed with the antibody or fusion protein diluted in gradient, pre-incubated at 37° C. for 30 min, and added to a blocked microplate. The plate was incubated at 37° C. for 1.5 h. After the incubation was completed, the plate was washed 3 times with PBST. 100 μL of streptavidin-HRP (Invitrogen, 434323, diluted at a ratio of 1:4000) was added to each well, and the plate was incubated at 37° C. for 1 h. The supernatant was removed, and the plate was washed 3 times with PBST. […] The plate was read for absorbance values at 450 nm on a microplate reader, the curves for the inhibition of the binding of the ligands to the receptors were fitted with software, and the IC₅₀ values were calculated. […]

[4] = biological target: T2, human APRIL (5860-AP-010/CF, R&D Systems) (human, UniProt O75888 115-250, limits assumed); assay: competition ELISA: biotin-labeled APRIL to coated BCMA
T2 construct: Bought protein
T2 sequence (looked up): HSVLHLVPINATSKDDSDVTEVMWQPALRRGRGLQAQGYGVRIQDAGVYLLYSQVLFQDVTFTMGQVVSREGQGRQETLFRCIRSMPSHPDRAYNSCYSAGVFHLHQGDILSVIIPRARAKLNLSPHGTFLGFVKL
Procedure: as §1

[5] = biological target: T2, human APRIL (5860-AP-010/CF, R&D …); assay: competition ELISA: biotin-labeled APRIL to coated TACI
Procedure: as §1

[6] = biological target: T3, mouse BAFF (BAF-M521y, Acro Biosystems) (mouse, UniProt Q9WU72 127-309); assay: SPR (Biacore), sample captured on Protein A, antigen flowed, 1:1 fit
T3 construct: Bought protein

[7] = biological target: T1, human BAFF (10056-HNCH, Sino biological); assay: competition ELISA: BAFF-R coated on the plate, biotin-labelled BAFF at a fixed concentration pre-incubated with the diluted sample, streptavidin-HRP, OD450 (blocked ligand-receptor pair: BAFF/BAFF-R)
Procedure: as §1

IC50 (nM) for the inhibition of the BAFF-induced B cell proliferation [1]: 0.382 nM
EC50 [2]: 6.71 nM
IC50 [3]: 0.973 nM
IC50 [4]: 25.1 nM
IC50 [5]: 3.3 nM
Kd [6]: 0.121 nM
koff [6]: 8.98e-05 s⁻¹
kon [6]: 740000 M⁻¹ s⁻¹
IC50 (read off the curve) [7]: ~3 nM
B1: RCT-18 (Telitacicept) (Fc fusion)
chain: SRVDQEERFPQGLWTGVAMRSCPEEQYWDPLLGTCMSCKTICNHQSQRTCAAFCRSLSCRKEQGKFYDHLLRDCISCASICGQHPKQCAYFCENKLRSPVNLPPELDKTHTCPPCPAPEAEGAPSVFLFPPKPKDTLMISRTPEVTCVVVDVSHEDPEVKFNWYVDGVEVHNAKTKPREEQYNSTYRVVSVLTVLHQDWLNGKEYKCKVSNKALPSSIEKTISKAKGQPREPQVYTLPPSRDELTKNQVSLTCLVKGFYPSDIAVEWESNGQPENNYKTTPPVLDSDGSFFLYSKLTVDKSRWQQGNVFSCSVMHEALHNHYTQKSLSLSPGK
notes: Positive control; TACI part is positions 13-118 of the extracellular region of human TACI, the rest is Fc
